“And” between values parts separate entries of the source, which are not always exact repeats. Equal entries are not always repeated.
Tests used:
[1] = target: biotinylated antigen (biotinylated 16-branched citrullinated peptide); test: magnetic particle chemiluminescence immunoassay; antibody at 10 RU/ml; kit stored at 4 C for 7 days; mean of two
[2] = target: biotinylated antigen (biotinylated 16-branched citrullinated peptide); test: magnetic particle chemiluminescence immunoassay; antibody at 80 RU/ml; kit stored at 37 C for 7 days; mean of two
[3] = target: biotinylated antigen (biotinylated 16-branched citrullinated peptide); test: magnetic particle chemiluminescence immunoassay; antibody at 10 RU/ml; kit stored at 37 C for 7 days
[4] = target: biotinylated antigen (biotinylated 16-branched citrullinated peptide); test: magnetic particle chemiluminescence immunoassay; antibody at 200 RU/ml; kit stored at 4 C for 7 days; mean of two
[5] = target: biotinylated antigen (biotinylated 16-branched citrullinated peptide); test: magnetic particle chemiluminescence immunoassay; antibody at 80 RU/ml; kit stored at 37 C for 7 days
[6] = target: biotinylated antigen (biotinylated 16-branched citrullinated peptide); test: magnetic particle chemiluminescence immunoassay; antibody at 10 RU/ml; kit stored at 4 C for 7 days
[7] = target: biotinylated antigen (biotinylated 16-branched citrullinated peptide); test: magnetic particle chemiluminescence immunoassay; antibody at 10 RU/ml; kit stored at 37 C for 7 days; mean of two
[8] = target: biotinylated antigen (biotinylated 16-branched citrullinated peptide); test: magnetic particle chemiluminescence immunoassay; antibody at 80 RU/ml; kit stored at 4 C for 7 days; mean of two
[9] = target: biotinylated antigen (biotinylated 16-branched citrullinated peptide); test: magnetic particle chemiluminescence immunoassay, antigen on streptavidin particles, AP anti-human IgG detection; antibody at 10 RU/ml; kit stored at 4 C for 7 days
[10] = target: biotinylated antigen (biotinylated 16-branched citrullinated peptide); test: magnetic particle chemiluminescence immunoassay; antibody at 200 RU/ml; kit stored at 37 C for 7 days
[11] = target: biotinylated antigen (biotinylated 16-branched citrullinated peptide); test: magnetic particle chemiluminescence immunoassay; antibody at 80 RU/ml; kit stored at 4 C for 7 days
[12] = target: biotinylated antigen (biotinylated 16-branched citrullinated peptide); test: magnetic particle chemiluminescence immunoassay; antibody at 200 RU/ml; kit stored at 37 C for 7 days; mean of two
[13] = target: biotinylated antigen (biotinylated 16-branched citrullinated peptide); test: magnetic particle chemiluminescence immunoassay; antibody at 200 RU/ml; kit stored at 4 C for 7 days

RLU (AVER) [1]: 129000 RLU | RLU (AVER) [2]: 902000 RLU | RLU [3]: 124000 RLU | RLU (AVER) [4]: 2.4e+06 RLU | RLU [5]: 886000 RLU and 917000 RLU | RLU [6]: 132000 RLU | RLU (AVER) [7]: 124000 RLU | RLU (AVER) [8]: 889000 RLU | RLU [9]: 125000 RLU | RLU [10]: 2.32e+06 RLU and 2.44e+06 RLU | RLU [11]: 846000 RLU and 932000 RLU | RLU (AVER) [12]: 2.38e+06 RLU | RLU [13]: 2.38e+06 RLU and 2.42e+06 RLU
Substance: anti-citrullinated peptide antibody (quality control material / calibrator of the kit)

Source: patent US20210172946A1
